Assays:
[1] = target: cynomolgus monkey GCGR (cynomolgus monkey)
[2] = target: cynomolgus monkey GLP-1R (cynomolgus monkey)
rat GCGR (rat) = rat GCGR (rat) (UniProt P30082)
mouse GLP-1R (mouse) = mouse GLP-1R (mouse) (UniProt O35659)
[3] = target: human glucagon receptor (GCGR) (human) (UniProt P47871)
mouse GCGR (mouse) = mouse GCGR (mouse) (UniProt Q61606)
rat GLP-1R (rat) = rat GLP-1R (rat) (UniProt P32301)
Sequence of UniProt P32301 (P32301 22-463): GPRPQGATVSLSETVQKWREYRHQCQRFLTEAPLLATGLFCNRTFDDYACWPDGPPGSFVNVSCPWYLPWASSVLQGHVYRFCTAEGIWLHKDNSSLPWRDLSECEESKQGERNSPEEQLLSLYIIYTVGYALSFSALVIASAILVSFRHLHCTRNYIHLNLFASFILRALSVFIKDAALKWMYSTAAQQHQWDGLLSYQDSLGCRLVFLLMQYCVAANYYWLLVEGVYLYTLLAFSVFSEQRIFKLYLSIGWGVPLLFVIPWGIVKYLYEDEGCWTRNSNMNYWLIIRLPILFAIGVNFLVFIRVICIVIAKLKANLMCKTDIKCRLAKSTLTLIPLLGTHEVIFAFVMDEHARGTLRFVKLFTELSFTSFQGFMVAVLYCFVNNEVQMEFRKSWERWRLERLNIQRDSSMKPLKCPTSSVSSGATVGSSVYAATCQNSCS

Sequence of UniProt Q61606 (Q61606 27-485): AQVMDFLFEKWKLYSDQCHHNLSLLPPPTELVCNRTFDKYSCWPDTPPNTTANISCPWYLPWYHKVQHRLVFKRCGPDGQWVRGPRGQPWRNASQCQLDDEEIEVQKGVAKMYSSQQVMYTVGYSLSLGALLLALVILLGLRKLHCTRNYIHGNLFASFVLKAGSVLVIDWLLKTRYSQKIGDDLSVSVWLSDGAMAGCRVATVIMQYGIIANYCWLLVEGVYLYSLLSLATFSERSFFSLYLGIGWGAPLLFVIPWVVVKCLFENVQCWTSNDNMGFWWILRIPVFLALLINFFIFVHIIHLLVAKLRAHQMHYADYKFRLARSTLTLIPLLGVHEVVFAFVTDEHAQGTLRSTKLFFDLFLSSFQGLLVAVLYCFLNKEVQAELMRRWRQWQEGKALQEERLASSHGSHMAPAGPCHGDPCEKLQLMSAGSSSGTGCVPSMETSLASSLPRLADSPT
Sequence of UniProt O35659 (O35659 22-463): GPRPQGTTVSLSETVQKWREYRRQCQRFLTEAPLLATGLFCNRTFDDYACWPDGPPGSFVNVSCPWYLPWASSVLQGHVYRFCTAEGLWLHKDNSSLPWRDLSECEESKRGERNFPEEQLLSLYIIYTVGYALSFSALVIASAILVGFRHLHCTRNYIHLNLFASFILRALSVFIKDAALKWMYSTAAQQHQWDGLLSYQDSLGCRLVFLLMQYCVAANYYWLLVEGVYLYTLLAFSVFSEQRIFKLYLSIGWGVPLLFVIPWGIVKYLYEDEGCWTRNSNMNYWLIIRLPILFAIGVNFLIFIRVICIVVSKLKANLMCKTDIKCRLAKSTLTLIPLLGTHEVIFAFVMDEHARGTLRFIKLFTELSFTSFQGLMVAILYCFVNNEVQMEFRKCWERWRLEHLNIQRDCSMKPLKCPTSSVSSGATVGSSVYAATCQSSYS
Sequence of UniProt P30082 (P30082 27-485): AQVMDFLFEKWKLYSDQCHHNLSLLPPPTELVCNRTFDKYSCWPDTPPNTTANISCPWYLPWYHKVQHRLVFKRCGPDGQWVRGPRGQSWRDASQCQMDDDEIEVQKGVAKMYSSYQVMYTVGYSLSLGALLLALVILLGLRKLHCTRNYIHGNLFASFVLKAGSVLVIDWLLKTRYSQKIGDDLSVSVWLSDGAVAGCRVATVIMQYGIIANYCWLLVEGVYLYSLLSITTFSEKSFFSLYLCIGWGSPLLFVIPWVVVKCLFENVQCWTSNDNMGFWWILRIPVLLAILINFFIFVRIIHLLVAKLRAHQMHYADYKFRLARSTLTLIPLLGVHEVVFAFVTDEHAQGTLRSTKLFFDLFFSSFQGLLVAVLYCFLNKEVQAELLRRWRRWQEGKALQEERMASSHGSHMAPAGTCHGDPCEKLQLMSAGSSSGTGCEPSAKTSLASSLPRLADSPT
Sequence of UniProt P47871 (P47871 26-477): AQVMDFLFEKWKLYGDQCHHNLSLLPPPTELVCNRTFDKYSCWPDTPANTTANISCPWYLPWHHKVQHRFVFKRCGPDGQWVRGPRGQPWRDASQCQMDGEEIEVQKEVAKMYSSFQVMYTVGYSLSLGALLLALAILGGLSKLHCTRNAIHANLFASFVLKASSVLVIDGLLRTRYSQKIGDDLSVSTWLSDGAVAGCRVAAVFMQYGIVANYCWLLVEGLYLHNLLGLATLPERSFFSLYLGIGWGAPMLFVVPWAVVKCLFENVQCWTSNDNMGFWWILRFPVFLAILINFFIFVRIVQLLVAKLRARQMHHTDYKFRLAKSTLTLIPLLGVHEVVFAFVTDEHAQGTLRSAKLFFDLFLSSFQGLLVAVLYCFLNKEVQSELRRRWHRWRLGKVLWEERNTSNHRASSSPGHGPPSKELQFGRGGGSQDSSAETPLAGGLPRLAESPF

native oxyntomodulin (peptide) showed an EC50 of cAMP in clonal HEK293 cells stably expressing cynomolgus monkey GCGR [1] of 0.49 nM, an EC50 of cAMP in clonal HEK293 cells stably expressing cynomolgus monkey GLP-1R [2] of 0.8 nM and an EC50 of cAMP in clonal HEK293 cells stably expressing rat GCGR (rat GCGR (rat)) of 12.7 nM. For the same substance, the EC50 of cAMP in clonal HEK293 cells stably expressing mouse GLP-1R (mouse GLP-1R (mouse)) was 1.9 nM, the EC50 of cAMP in clonal HEK293 cells stably expressing human GCGR [3] was 3.01 nM and the EC50 of cAMP in clonal HEK293 cells stably expressing mouse GCGR (mouse GCGR (mouse)) was 6.31 nM. For the same substance, the EC50 of cAMP in clonal HEK293 cells stably expressing rat GLP-1R (rat GLP-1R (rat)) was 0.98 nM.

From article PMC7531507
